Test results as given in patent US20250154198A1, “PEPTIDE INHIBITORS OF INTERLEUKIN-23 RECEPTOR” (Zealand Pharma A/S, priority 2021, published 2025).
*1 amine or outer side, *2 acyl side, *3 side chain or, on linkers, in order; H or OH if unused. Bridges are numbered along the chain shown (N, C = ends). Where no end group is shown, it is not given here. [ ]: non-standard residue; d: D form. 1,3‑dibromopropan‑2‑one = linker (CAS 816-39-7) joining two Cys as 1,3-dithio-propan-2-one bridge -SCH2C(=O)CH2S-; 4‑(2-Aminoethyl)benzoyl = O=C(c1ccc(CCN[*:1])cc1)[*:2]; Trp(7-Me) = Cc1cccc2c(C[C@H](N)C(=O)O)c[nH]c12; Bip = N[C@@H](Cc1ccc(-c2ccccc2)cc1)C(=O)O; 2Nal = N[C@@H](Cc1ccc2ccccc2c1)C(=O)O; AEF = NCCOc1ccc(C[C@H](N)C(=O)O)cc1; αMeR = C[C@](N)(CCCNC(=N)N)C(=O)O; 4Pal = N[C@@H](Cc1ccncc1)C(=O)O; αMeL = CC(C)C[C@](C)(N)C(=O)O; CH2COCH2 = O=C(C[*:1])C[*:2]; 3Amb = NCc1cccc(C(=O)O)c1; Orn = NCCC[C@H](N)C(=O)O; Dab = NCC[C@H](N)C(=O)O

T1: human IL-23R endogenously expressed on DB cells (CRL-2289) (human, UniProt Q5VWK5 24-629)
T1 sequence (looked up): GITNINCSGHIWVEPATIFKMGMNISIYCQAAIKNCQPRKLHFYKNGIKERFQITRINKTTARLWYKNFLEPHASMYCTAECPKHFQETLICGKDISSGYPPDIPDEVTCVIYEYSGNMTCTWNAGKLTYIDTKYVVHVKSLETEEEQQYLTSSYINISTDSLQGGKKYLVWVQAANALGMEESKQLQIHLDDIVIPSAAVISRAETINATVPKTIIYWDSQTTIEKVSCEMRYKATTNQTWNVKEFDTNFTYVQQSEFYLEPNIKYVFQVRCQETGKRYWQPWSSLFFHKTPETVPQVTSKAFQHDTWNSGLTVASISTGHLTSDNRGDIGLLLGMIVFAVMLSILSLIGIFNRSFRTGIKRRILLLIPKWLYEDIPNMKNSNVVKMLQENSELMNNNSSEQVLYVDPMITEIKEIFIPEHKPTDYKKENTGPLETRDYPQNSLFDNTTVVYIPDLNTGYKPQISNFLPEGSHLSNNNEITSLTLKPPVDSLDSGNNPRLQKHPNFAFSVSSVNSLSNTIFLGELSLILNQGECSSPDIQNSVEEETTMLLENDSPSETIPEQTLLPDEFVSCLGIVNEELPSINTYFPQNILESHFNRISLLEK

B1: Compound 44 (peptide)
peptide: [3Amb]SCWQC[AEF][2Nal][αMeL]ES-NH2
modifications: lactam N-10; linker 3-6 via CH2COCH2
SMILES: CC(C)C[C@]1(C)NC(=O)[C@H](Cc2ccc3ccccc3c2)NC(=O)[C@H](Cc2ccc(OCCN)cc2)NC(=O)[C@@H]2CSCC(=O)CSC[C@H](NC(=O)[C@H](CO)NC(=O)c3cccc(c3)CNC(=O)CC[C@@H](C(=O)N[C@@H](CO)C(N)=O)NC1=O)C(=O)N[C@@H](Cc1c[nH]c3ccccc13)C(=O)N[C@@H](CCC(N)=O)C(=O)N2
B2: Compound 68 (peptide)
peptide: [3Amb]S[Orn]WQE[AEF][2Nal][αMeL]ER-NH2
modifications: lactam (positions not given here); lactam 3-6; not fully specified (bridges); printed as [(3-Aminomethyl)benzoyl](1c)*S[Orn](2c)WQE(2c)[Y(2-aminoethoxy)][2-Nal][2-Me-Leu]E(1c)R-[NH2]
B3: Compound 36 (peptide)
peptide: XSCWQCWXLER
HELM: PEPTIDE1{[bAla].S.C.W.Q.C.W.[O=C([C@H](Cc1ccc2ccccc2c1)N[*:1])[*:2]].L.E.R.[am]}|CHEM1{[O=C(C[*:1])C[*:2]]}$PEPTIDE1,PEPTIDE1,1:R1-10:R3|PEPTIDE1,CHEM1,3:R3-1:R1|PEPTIDE1,CHEM1,6:R3-1:R2$$$V2.0
SMILES: CC(C)C[C@@H]1NC(=O)[C@H](Cc2ccc3ccccc3c2)NC(=O)[C@H](Cc2c[nH]c3ccccc23)NC(=O)[C@@H]2CSCC(=O)CSC[C@H](NC(=O)[C@H](CO)NC(=O)CCNC(=O)CC[C@@H](C(=O)N[C@@H](CCCNC(=N)N)C(N)=O)NC1=O)C(=O)N[C@@H](Cc1c[nH]c3ccccc13)C(=O)N[C@@H](CCC(N)=O)C(=O)N2
B4: Compound 38 (peptide)
peptide: [3Amb]SCWQC[AEF][2Nal][αMeL]ER-NH2
modifications: lactam N-10; linker 3-6 via CH2COCH2
SMILES: CC(C)C[C@]1(C)NC(=O)[C@H](Cc2ccc3ccccc3c2)NC(=O)[C@H](Cc2ccc(OCCN)cc2)NC(=O)[C@@H]2CSCC(=O)CSC[C@H](NC(=O)[C@H](CO)NC(=O)c3cccc(c3)CNC(=O)CC[C@@H](C(=O)N[C@@H](CCCNC(=N)N)C(N)=O)NC1=O)C(=O)N[C@@H](Cc1c[nH]c3ccccc13)C(=O)N[C@@H](CCC(N)=O)C(=O)N2
B5: Compound 70 (peptide)
peptide: [3Amb]SC[Trp(7-Me)]QC[AEF][2Nal][αMeL]ER-NH2
modifications: lactam (positions not given here); linker 3-6 via CH2COCH2; not fully specified (bridges)
B6: Compound 42 (peptide)
peptide: [3Amb]SCWQC[AEF][2Nal][αMeL]E[αMeR]-NH2
modifications: lactam N-10; linker 3-6 via CH2COCH2
SMILES: CC(C)C[C@]1(C)NC(=O)[C@H](Cc2ccc3ccccc3c2)NC(=O)[C@H](Cc2ccc(OCCN)cc2)NC(=O)[C@@H]2CSCC(=O)CSC[C@H](NC(=O)[C@H](CO)NC(=O)c3cccc(c3)CNC(=O)CC[C@@H](C(=O)N[C@@](C)(CCCNC(=N)N)C(N)=O)NC1=O)C(=O)N[C@@H](Cc1c[nH]c3ccccc13)C(=O)N[C@@H](CCC(N)=O)C(=O)N2
B7: Compound 26 (peptide)
peptide: Ac-KSC[Bip]QCW[2Nal]LER-NH2
modifications: lactam 1-10; linker 3-6 via CH2COCH2
SMILES: CC(=O)N[C@H]1CCCCNC(=O)CC[C@@H](C(=O)N[C@@H](CCCNC(=N)N)C(N)=O)NC(=O)[C@H](CC(C)C)NC(=O)[C@H](Cc2ccc3ccccc3c2)NC(=O)[C@H](Cc2c[nH]c3ccccc23)NC(=O)[C@@H]2CSCC(=O)CSC[C@H](NC(=O)[C@H](CO)NC1=O)C(=O)N[C@@H](Cc1ccc(-c3ccccc3)cc1)C(=O)N[C@@H](CCC(N)=O)C(=O)N2
B8: Compound 56 (peptide)
peptide: Ac-DEQCWQC[2Nal]W[αMeL]KR-NH2
modifications: lactam 2-11; linker 4-7 via CH2COCH2
SMILES: CC(=O)N[C@@H](CC(=O)O)C(=O)N[C@H]1CCC(=O)NCCCC[C@@H](C(=O)N[C@@H](CCCNC(=N)N)C(N)=O)NC(=O)[C@](C)(CC(C)C)NC(=O)[C@H](Cc2c[nH]c3ccccc23)NC(=O)[C@H](Cc2ccc3ccccc3c2)NC(=O)[C@@H]2CSCC(=O)CSC[C@H](NC(=O)[C@H](CCC(N)=O)NC1=O)C(=O)N[C@@H](Cc1c[nH]c3ccccc13)C(=O)N[C@@H](CCC(N)=O)C(=O)N2
B9: Compound 50 (peptide)
peptide: [4‑(2-Aminoethyl)benzoyl]SCWQC[AEF][2Nal][αMeL]ER-NH2
modifications: lactam N-10; linker 3-6 via CH2COCH2
SMILES: CC(C)C[C@]1(C)NC(=O)[C@H](Cc2ccc3ccccc3c2)NC(=O)[C@H](Cc2ccc(OCCN)cc2)NC(=O)[C@@H]2CSCC(=O)CSC[C@H](NC(=O)[C@H](CO)NC(=O)c3ccc(cc3)CCNC(=O)CC[C@@H](C(=O)N[C@@H](CCCNC(=N)N)C(N)=O)NC1=O)C(=O)N[C@@H](Cc1c[nH]c3ccccc13)C(=O)N[C@@H](CCC(N)=O)C(=O)N2
B10: Compound 69 (peptide)
peptide: [3Amb]SEWQ[Orn][AEF][2Nal][αMeL]ER-NH2
modifications: lactam (positions not given here); lactam 3-6; not fully specified (bridges); printed as [(3-Aminomethyl)benzoyl](1c)*SE(2c)WQ[Orn](2c)[Y(2-aminoethoxy)][2-Nal][2-Me-Leu]E(1c)R-[NH2]
B11: Compound 39 (peptide)
peptide: [3Amb]SCWQC[AEF][2Nal]LER-NH2
modifications: lactam N-10; linker 3-6 via CH2COCH2
SMILES: CC(C)C[C@@H]1NC(=O)[C@H](Cc2ccc3ccccc3c2)NC(=O)[C@H](Cc2ccc(OCCN)cc2)NC(=O)[C@@H]2CSCC(=O)CSC[C@H](NC(=O)[C@H](CO)NC(=O)c3cccc(c3)CNC(=O)CC[C@@H](C(=O)N[C@@H](CCCNC(=N)N)C(N)=O)NC1=O)C(=O)N[C@@H](Cc1c[nH]c3ccccc13)C(=O)N[C@@H](CCC(N)=O)C(=O)N2
B12: Compound 79 (peptide)
peptide: [3Amb]SCWQC[AEF][2Nal][αMeL]ER[4Pal]-NH2
modifications: lactam (positions not given here); linker 3-6 via CH2COCH2; not fully specified (bridges); printed as [(3-Aminomethyl)benzoyl](1c)*SC(2a)WQC(2a)[Y(2-aminoethoxy)][2-Nal][2-Me-Leu]E(1c)R[3-(4-Pyridyl)-Ala]-[NH2]

These binders were tested against T1, human IL-23R endogenously expressed on … (assay: cell-based or functional assay).
With B1 the “IC50 (pSTAT3)” value was 82.3 nM. For B2, the “IC50 (pSTAT3)” value was 63.9 nM. With H-DCSEWQKWWLCR-NH2 (linker 2-11 via 1,3‑dibromopropan‑2‑one; lactam 4-7) [Compound 5] the “IC50 (pSTAT3)” value was > 1 µM. In the case of B3, the “IC50 (pSTAT3)” value is reported as > 1 µM. For [3Amb]SEWQ[Dab][AEF][2Nal][αMeL]ER-NH2 (lactam (positions not given here); lactam 3-6; not fully specified (bridges)) [Compound 67], the “IC50 (pSTAT3)” value was 35.3 nM. In the case of B4, the “IC50 (pSTAT3)” value is reported as 19.3 nM. In the case of Ac-DESCAQCWWLKR-NH2 (lactam 2-11; linker 4-7 via 1,3‑dibromopropan‑2‑one) [Compound 13], the “IC50 (pSTAT3)” value is reported as > 1 µM. With Ac-DESCWQCWALKR-NH2 (lactam 2-11; linker 4-7 via 1,3‑dibromopropan‑2‑one) [Compound 15] the “IC50 (pSTAT3)” value was > 1 µM. With Ac-DESCWQCAWLKR-NH2 (lactam 2-11; linker 4-7 via 1,3‑dibromopropan‑2‑one) [Compound 14] the “IC50 (pSTAT3)” value was > 1 µM. B5 was tested, and the “IC50 (pSTAT3)” value was 8.43 nM. For H-LCSCWQCWWLCR-NH2 (linker 2-11, 4-7 via CH2COCH2) [Compound 2], the “IC50 (pSTAT3)” value was 755 nM. B6 was tested, and the “IC50 (pSTAT3)” value was 24.7 nM. For Ac-DCQCWQC[2Nal]W[αMeL]CR-NH2 (linker 2-11, 4-7 via CH2COCH2) [Compound 62], the “IC50 (pSTAT3)” value was > 1 µM. In the case of B7, the “IC50 (pSTAT3)” value is reported as > 1 µM. In the case of cyclo(DSCWQCWWLR) (linker 3-6 via 1,3‑dibromopropan‑2‑one) [Compound 6], the “IC50 (pSTAT3)” value is reported as > 1 µM. [3‑(4-Aminophenyl)propanoyl]SCWQC[AEF][2Nal][αMeL]ER-NH2 (lactam N-10; linker 3-6 via CH2COCH2) [Compound 51] was tested, and the “IC50 (pSTAT3)” value was 68.1 nM. With B8 the “IC50 (pSTAT3)” value was > 1 µM. With B9 the “IC50 (pSTAT3)” value was 51.1 nM. With B10 the “IC50 (pSTAT3)” value was 41.1 nM. With [(4-Aminomethyl)benzoyl]SCWQC[AEF][2Nal][αMeL]ER-NH2 (lactam N-10; linker 3-6 via CH2COCH2) [Compound 49] the “IC50 (pSTAT3)” value was 20.3 nM. In the case of B11, the “IC50 (pSTAT3)” value is reported as 19.6 nM. For Ac-DCQCWQCYW[αMeL]CR-NH2 (linker 2-11, 4-7 via CH2COCH2) [Compound 63], the “IC50 (pSTAT3)” value was > 1 µM. With B12 the “IC50 (pSTAT3)” value was 21.3 nM.
